From PMC5037430, “High throughput cell-based assay for identification of glycolate oxidase inhibitors as a potential treatment for Primary Hyperoxaluria Type 1” (Scientific Reports, 2016) come the findings set out here.

In general, Km refers to the concentration of substrate that gives half-maximal velocity.

Substrate in the data set: O=C(O)CO
The experiment in a line: purified protein. To be noted: FMN.

B1: glycolate oxidase (GO); hydroxyacid oxidase 1 (HAO1) (Homo sapiens) (protein)
chain: MLPRLICINDYEQHAKSVLPKSIYDYYRSGANDEETLADNIAAFSRWKLYPRMLRNVAETDLSTSVLGQRVSMPICVGATAMQRMAHVDGELATVRACQSLGTGMMLSSWATSSIEEVAEAGPEALRWLQLYIYKDREVTKKLVRQAEKMGYKAIFVTVDTPYLGNRLDDVRNRFKLPPQLRMKNFETSTLSFSPEENFGDDSGLAAYVAKAIDPSISWEDIKWLRRLTSLPIVAKGILRGDDAREAVKHGLNGILVSNHGARQLDGVPATIDVLPEIVEAVEGKVEVFLDGGVRKGTDVLKALALGAKAVFVGRPIVWGLAFQGEKGVQDVLEILKEEFRLAMALSGCQNVKVIDKTLVRKNPLAVSKI
For B1, the Michaelis constant (Km) came out at 74.5 µM.
